Among the data in article PMC4954732 (2016) are Kd values, retold here.

The test addresses A. fumigatus CCAAT binding complex (CBC) consisting of HapB(230-299), HapC(40-137) and HapE(47-164) (A. fumigatus). Description: SPR. For orientation: Surface plasmon resonance follows binding to a sensor surface in real time, without labels.

B1: HapX(24-158) (domain or fragment)
chain: SPSPGPGTPGSITSKEWVIPPRPKPGRKPATDTPPTKRKAQNRAAQRAFRERRAARVNELEEQIKKIEDEHEIHIAAFKEQITNLSREVEQCRSEMTWWRDRCHALEKEVSVERSAKEAIVKEFRSSLSDREAVR
Usually Kd stands for the free concentration of one partner at which half of the binding sites on the other are occupied at equilibrium, for simple one-to-one binding. A higher Kd goes with lower affinity. The molecule B1 had a Kd of 16.2 nM. This counts as double-digit nanomolar.
